According to the supplement of paper PMC7125110:
± gives the standard error. Fewer inactive variants are shown than the library holds.

B1: glmS ribozyme (parent)
chain: AUAAAAGCGCCAGAACUACAGAAAUGUAGUUGACGAGGAGGAGGUUUAUCGAAUUUUCGGCGGAUGCCUCCAAA

Assays:
Conditions in all cases: with glucosamine-6-phosphate
glucosamine-6-phosphate [1] = variants of: B1; experiment: self-cleavage kobs at 160 uM GlcN6P; higher = faster cleavage; RNA array
Outline: (§1)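 Barcoded ribozyme variants, transcribed in situ by E. coli RNA polymerase on sequenced MiSeq chips, were followed via a hybridised Cy3 probe at 37 °C. Glucosamine-6-phosphate ranged from 40 μM to 10 mM in HEPES/KCl/Mg(OAc)2 buffer. kobs came from decay fits to per-tile medians, and kcat and KM from weighted Michaelis–Menten fits.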

glucosamine-6-phosphate [2] = variants of: B1; experiment: self-cleavage kobs at 2500 uM GlcN6P; higher = faster cleavage; RNA array
Outline: as §1

glucosamine-6-phosphate [3] = variants of: B1; experiment: self-cleavage kobs at 640 uM GlcN6P; higher = faster cleavage; RNA array
Outline: as §1

glucosamine-6-phosphate [4] = variants of: B1; experiment: self-cleavage kobs at 10000 uM GlcN6P; higher = faster cleavage; RNA array
Outline: as §1

Row | Variant | self-cleavage kobs at 160 uM GlcN6P (glucosamine-6-phosphate [1]) [s⁻¹] | self-cleavage kobs at 2500 uM GlcN6P (glucosamine-6-phosphate [2]) [s⁻¹] | self-cleavage kobs at 640 uM GlcN6P (glucosamine-6-phosphate [3]) [s⁻¹] | self-cleavage kobs at 10000 uM GlcN6P (glucosamine-6-phosphate [4]) [s⁻¹]
1 | A39C G51C U55A | < 1e-05 | < 1e-05 |  | 
2 | U57C G60U | < 1e-05 | < 1e-05 | < 1e-05 | < 1e-05
3 | G35C A36U C58U | < 1e-05 | < 1e-05 |  | 
4 | G37A U54G U69A |  | 5.96e-05 ± 2.2e-05 | 0.000103 ± 2.5e-05 | 
5 | C10G G41U U55A C58G G63U |  |  | < 1e-05 | 
6 | A6U A12G A48U G59U G62A | < 1e-05 |  |  | 
7 | C8U A15G G29A | < 1e-05 | < 1e-05 | < 1e-05 | 
8 | U30G A42U C50A G60U |  |  | < 1e-05 | 
9 | U30A G51U | < 1e-05 | < 1e-05 | < 1e-05 | < 1e-05
10 | G9U C61A C70G |  |  | 4.55e-05 ± 2.1e-05 | 
11 | A42U U47C A52C | < 1e-05 | < 1e-05 |  | 
12 | A39G C50G | 0.000247 ± 0.00011 |  |  | 
13 | G41A G51U | < 1e-05 | < 1e-05 | < 1e-05 | < 1e-05
14 | C16U A52G C71G | 0.000103 ± 3.1e-05 | 0.000175 ± 3.2e-05 | 5.85e-05 ± 1.3e-05 | 
15 | A6C U57C | < 1e-05 | < 1e-05 | < 1e-05 | < 1e-05
16 | G13C A14C G51A G66U | < 1e-05 | < 1e-05 |  | 
17 | G32U A48G G63C | < 1e-05 | < 1e-05 |  | 
18 | G40A A42C A48G | < 1e-05 | < 1e-05 | < 1e-05 | < 1e-05
19 | A36U G40U | < 1e-05 |  | < 1e-05 | < 1e-05
20 | C10A G38A G41U G44A G59U | < 1e-05 | < 1e-05 | < 1e-05 | 
21 | A6U C10U G35C A48U G63A |  |  | < 1e-05 | 
22 | A39C U55G C67U |  |  | 7.28e-05 ± 1.4e-05 | 
23 | A14U U49C U57G C70G | 9.25e-05 ± 2.7e-05 | 6.68e-05 ± 2.2e-05 | 6.79e-05 ± 2.7e-05 | 
24 | G35U G51A | < 1e-05 |  | < 1e-05 | < 1e-05
25 | C16U C50U U69G | 7.48e-05 ± 1.8e-05 | 7.21e-05 ± 1.6e-05 | 7.53e-05 ± 1.8e-05 | 
